Measured values published in the RNAGym collection of RNA variant scans (doi:10.7554/elife.80360).

B1: Hairpin Ribozyme (parent)
chain: GUCCUCUUUCACGUGCGCGUGAAAGAGAGAAGUGAACCAGAGAAACACACGUUGUGGUAUAUUACCUGGUA

Variants of: B1
Experiment: self-cleavage, relative activity (ratio to wild type); higher = more cleavage; co-transcriptional

| Variant | self-cleavage |
| --- | --- |
| G13A C65A | 0.743 |
| C12U G25A | 0.482 |
| G13A U58A | 0.574 |
| G13A G21U | 0.742 |
| G13A A31G | 0.515 |
| G13A A31C | 0.11 |
| C12G A43G | 0.139 |
| C12G A43U | 0.196 |
| C12G A43C | 0.125 |
| A11U C46U | 0.0973 |
| G13A G56U | 0.137 |
| C12G C48U | 0.193 |
| C12G C48G | 0.0599 |
| C12G A44C | 0.202 |
| A11G U14C | 0.952 |
| C12U U55G | 0.181 |
| C12U U55C | 0.218 |
| C12G G69C | 0.355 |
| C12A G15U | 0.805 |
| C12A G15C | 0.837 |
| C12A G15A | 0.801 |
| A11G U60G | 0.565 |
| C12G C50G | 0.176 |
| C12G U33A | 0.0646 |

| Variant | self-cleavage |
| --- | --- |
| C12U A24C | 0.721 |
| C12U A24G | 0.892 |
| C12U A31U | 0.112 |
| G13A U53A | 0.856 |
| A11G G56U | 0.105 |
| C12G U62G | 0.21 |
| C12A G56C | 0.0797 |
| C12A G56U | 0.159 |
| C12G G21A | 0.683 |
| A11U U53A | 0.679 |
| A11G G68A | 0.277 |
| C12G U14C | 0.61 |
| C12U U62G | 0.235 |
| C12G G56C | 0.154 |
| C12G A64U | 0.173 |
| C12G A64C | 0.334 |
| C12A G57C | 0.17 |
| C12G A26G | 0.75 |
| C12U A39G | 0.297 |
| A11U G42U | 0.171 |
| A11U G42C | 0.271 |
| A11U C48G | 0.0875 |
| C12A G29C | 0.0897 |
| C12A G29A | 0.162 |

| Variant | self-cleavage |
| --- | --- |
| C12A G29U | 0.201 |
| A11U G13A | 0.672 |
| G13A G42A | 0.194 |
| A11U A39C | 0.495 |
| A11U A39U | 0.309 |
| C12A G13U | 0.673 |
| C12G U63C | 0.296 |
| A11U C37A | 0.228 |
| C12A U58A | 0.733 |
| C12A U58C | 0.686 |
| A11U U55G | 0.339 |
| A11U U55C | 0.118 |
| A11U U33G | 0.151 |
| A11U U33C | 0.152 |
| C12U G42A | 0.149 |
| C12U G42U | 0.355 |
| C12A U33A | 0.158 |
| C12A A71G | 0.848 |
| C12A U62G | 0.143 |
| G13A A23G | 0.767 |
| A11U A26G | 0.751 |
| A11U A26U | 0.775 |
| C12G G32A | 0.143 |
| C12G G25A | 0.524 |

| Variant | self-cleavage |
| --- | --- |
| G13A A41C | 1.04 |
| C12G U67A | 0.202 |
| C12G U67G | 0.215 |
| A11U G29U | 0.0998 |
| A11U G29C | 0.0923 |
| A11G U52C | 0.944 |
| G13A U52C | 0.625 |
| G13A U52A | 1.01 |
| G13A U52G | 0.5 |
| C12A G34C | 1.17 |
| G13A G51C | 0.68 |
| A11U U52G | 0.362 |
| C12A C48U | 0.112 |
| G13A A36U | 0.491 |
| C12U A59U | 0.182 |
| C12U A59G | 0.116 |
| A11U C18U | 1.12 |
| A11U C18G | 0.812 |
| C12G U58G | 0.502 |
| C12G U58C | 0.762 |
| A11U A31G | 0.464 |
| A11U A31C | 0.152 |
| C12U C18U | 0.978 |
| C12U C18G | 0.832 |

| Variant | self-cleavage |
| --- | --- |
| A11G U58C | 0.81 |
| A11G U58A | 0.557 |
| G13A G69A | 0.368 |
| G13A G69U | 0.24 |
| G13A C16U | 1.03 |
| G13A C16A | 0.82 |
| G13A C16G | 0.593 |
| A11U C16G | 0.653 |
| A11U C16A | 0.696 |
| A11U C65A | 0.719 |
| C12A G27A | 0.378 |
| C12A G27U | 0.249 |
| A11U A41G | 0.495 |
| A11U U20G | 0.907 |
| A11U U20C | 1.11 |
| A11U U20A | 0.874 |
| C12G C66A | 0.171 |
| A11U C50U | 0.36 |
| G13A C46A | 0.124 |
| G13A C46G | 0.0618 |
| A11U U63C | 0.122 |
| C12U U20C | 0.894 |
| C12U U20A | 0.695 |
| C12U U33A | 0.205 |

| Variant | self-cleavage |
| --- | --- |
| C12U U33G | 0.207 |
| C12A G19C | 0.944 |
| C12G C37U | 0.445 |
| A11U U62C | 0.187 |
| C12U G17U | 0.69 |
| C12A A24C | 0.914 |
| C12A A24G | 0.676 |
| C12U C37A | 0.282 |
| C12G G57A | 0.152 |
| C12A U70A | 0.673 |
| A11U G56A | 0.176 |
| A11U G56U | 0.131 |
| A11U A59G | 0.0747 |
| C12U G15C | 0.897 |
| C12U U58C | 1 |
| G13A U14G | 0.538 |
| G13A U14C | 0.855 |
| G13A U14A | 0.99 |
| C12U U63A | 0.249 |
| C12A U20G | 0.732 |
| C12G G17C | 0.842 |
| C12A A47G | 0.0872 |
| C12A A47U | 0.132 |
| A11G G34C | 1.3 |

| Variant | self-cleavage |
| --- | --- |
| C12U C50U | 0.431 |
| C12U C50A | 0.314 |
| C12U G54A | 0.587 |
| C12A A36G | 0.956 |
| C12U G21A | 0.748 |
| C12U C38A | 0.143 |
| A11U U70C | 0.848 |
| C12A U53A | 0.785 |
| C12A U53G | 0.587 |
| G13A A28U | 0.495 |
| G13A A28C | 0.258 |
| C12G G40C | 0.117 |
| C12G G40U | 0.113 |
| G13A G29U | 0.116 |
| C12U U53G | 0.677 |
| C12U U53A | 0.974 |
| C12G G42A | 0.276 |
| A11G U70A | 0.627 |
| A11G U70C | 0.952 |
| C12G A71G | 0.803 |
| C12U G56A | 0.177 |
| A11G G17C | 0.571 |
| A11G G17U | 0.823 |
